Data published in article PMC3927398.

Tests used:
[1] = target: actin filaments (F-actin) from rabbit skeletal muscle, phalloidin-stabilized (rabbit) (UniProt P68135); assay: co-sedimentation
[2] = target: MYO19-1IQ (N-terminal FLAG-tagged human MYO19, motor domain and one IQ motif, amino acids 2-787) (human) (UniProt Q96H55); assay: co-purification

Row | Kd [1] [nM] | fraction bound at 5 μM actin without ATP [1] | stoichiometry N (CaM/MYO19-1IQ) [2] | Substance
1 | 1200 | 0.8 |  | MYO19-1IQ with bound calmodulin light chain (from UniProt Q96H55-1 2-787; P0DP23 1-149) (complex)
2 |  |  | 1.1 | calmodulin (from UniProt P0DP23 1-149) (natural protein)
